The values below come from patent US20030166192A1 (published 2003).

For assay [1], the target named is T1, RICK (UniProt O43353 1-540, limits assumed, 35S label in the in vitro assay).
T1 construct: also called 35S-labeled RICK; RIP2
The assay is described as follows: restated from Example 3; construct not named.

The target of the next assay is T2, pro-caspase-2 (UniProt P42575 1-452, limits assumed).
T2 sequence (looked up): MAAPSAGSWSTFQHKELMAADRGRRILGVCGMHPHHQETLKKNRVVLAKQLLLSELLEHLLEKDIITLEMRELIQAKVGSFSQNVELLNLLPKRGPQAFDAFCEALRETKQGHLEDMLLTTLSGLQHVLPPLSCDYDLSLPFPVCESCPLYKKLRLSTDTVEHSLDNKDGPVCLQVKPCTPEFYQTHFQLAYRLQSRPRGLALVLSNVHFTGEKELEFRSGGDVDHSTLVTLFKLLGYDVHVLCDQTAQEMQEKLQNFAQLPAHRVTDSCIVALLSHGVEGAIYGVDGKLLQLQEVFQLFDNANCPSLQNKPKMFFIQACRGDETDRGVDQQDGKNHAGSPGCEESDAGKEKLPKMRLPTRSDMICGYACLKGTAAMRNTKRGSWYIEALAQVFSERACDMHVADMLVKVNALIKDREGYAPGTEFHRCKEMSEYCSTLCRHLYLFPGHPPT
The assay is described as follows: GST pull-down in vitro or co-immunoprecipitation from 293 T cells (data not shown). Here is the method: (§1) Cells were then centrifuged at 10000 g for 15 min and supernatants were incubated for 2 h at 4° C. with gluthatione Sepharose 4B resin (Amersham Pharmacia Biotech). The protein-bound resin (30 μl) was washed with GST buffer and incubated overnight at 4° C. in the presence of 5 μl of ³⁵S-labeled in vitro-translated products. Labeled proteins were prepared from pcDNA3 constructs by in vitro transcription and translation in the presence of ³⁵S-methionine using T7-coupled transcription/translation TNT kit according to the manufacturer's instructions (Promega, Madison, Wis.). Samples of the protein-bound resins were washed three times in GST buffer, boiled in sodium dodecyl sulfate (SDS) Laemmli sample buffer and fractionated by electrophoresis on an SDS-polyacrylamide gel. Proteins were then visualized by autoradiography.
(§2) Human embryonic kidney 293 T cells, were cultured in […] dishes in Dulbecco modified essential medium (DMEM) supplemented with 10% fetal bovine serum (FBS) and antibiotics (Life Technologies). Cells at 50% confluency, were transiently co-transfected with equal amounts of T7-pcDNA3 and Flag-pCMV2 constructs (total DNA of 10 μg/dish) in OptiMEM using the lipofectamine method according to the manufacturer's recommendations (Life Technologies). Twelve hours after transfection, OptiMEM was replaced with DMEM/10% FBS. Twenty four hours later, cells were lysed in 300 μl of a buffer containing 25 mM tris(hydroxymethylaminomethane), pH 7.6, 150 mM NaCl, 1% nonidet-P40, and PMSF. Samples were centrifuged. One third of the supernatant was put aside to verify by Western blot the expression of the proteins. The remaining 200 μl of supernatant were incubated for 2 h at 4° C. with anti-Flag M5 plus M2 monoclonal antibodies (Ab; Sigma). The immune complexes were precipitated overnight at 4° C. with protein-G Sepharose (Amersham-Pharmacia Biotech), washed extensively and then eluted by boiling in SDS-sample buffer. The eluted proteins were resolved by SDS-PAGE and detected by Western blot analysis with horseradish peroxidase (HRP)-conjugated anti-T7 Ab (Novagen, Madison, Wis.). Bands were then detected using enhanced chemoluminescence kit (Amersham Pharmacia Biotech).

The next assay has as its target T3, pro-caspase-4 (UniProt P49662 1-377, limits assumed).
T3 sequence (looked up): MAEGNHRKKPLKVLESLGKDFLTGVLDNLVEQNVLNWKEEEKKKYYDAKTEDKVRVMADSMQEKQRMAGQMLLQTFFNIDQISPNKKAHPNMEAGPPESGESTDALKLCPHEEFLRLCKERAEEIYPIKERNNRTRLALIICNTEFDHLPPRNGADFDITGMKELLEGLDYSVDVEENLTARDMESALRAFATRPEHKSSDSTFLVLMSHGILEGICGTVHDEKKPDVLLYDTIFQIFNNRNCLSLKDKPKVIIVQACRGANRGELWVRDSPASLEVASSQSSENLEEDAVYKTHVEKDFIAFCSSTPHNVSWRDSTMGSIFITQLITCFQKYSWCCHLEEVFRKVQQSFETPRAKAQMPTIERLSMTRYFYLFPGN
The description is as above. How it is done: as §1, §2

In a further assay the target is T4, Apaf-1 (human, UniProt O14727 1-1248, limits assumed).
T4 sequence (looked up): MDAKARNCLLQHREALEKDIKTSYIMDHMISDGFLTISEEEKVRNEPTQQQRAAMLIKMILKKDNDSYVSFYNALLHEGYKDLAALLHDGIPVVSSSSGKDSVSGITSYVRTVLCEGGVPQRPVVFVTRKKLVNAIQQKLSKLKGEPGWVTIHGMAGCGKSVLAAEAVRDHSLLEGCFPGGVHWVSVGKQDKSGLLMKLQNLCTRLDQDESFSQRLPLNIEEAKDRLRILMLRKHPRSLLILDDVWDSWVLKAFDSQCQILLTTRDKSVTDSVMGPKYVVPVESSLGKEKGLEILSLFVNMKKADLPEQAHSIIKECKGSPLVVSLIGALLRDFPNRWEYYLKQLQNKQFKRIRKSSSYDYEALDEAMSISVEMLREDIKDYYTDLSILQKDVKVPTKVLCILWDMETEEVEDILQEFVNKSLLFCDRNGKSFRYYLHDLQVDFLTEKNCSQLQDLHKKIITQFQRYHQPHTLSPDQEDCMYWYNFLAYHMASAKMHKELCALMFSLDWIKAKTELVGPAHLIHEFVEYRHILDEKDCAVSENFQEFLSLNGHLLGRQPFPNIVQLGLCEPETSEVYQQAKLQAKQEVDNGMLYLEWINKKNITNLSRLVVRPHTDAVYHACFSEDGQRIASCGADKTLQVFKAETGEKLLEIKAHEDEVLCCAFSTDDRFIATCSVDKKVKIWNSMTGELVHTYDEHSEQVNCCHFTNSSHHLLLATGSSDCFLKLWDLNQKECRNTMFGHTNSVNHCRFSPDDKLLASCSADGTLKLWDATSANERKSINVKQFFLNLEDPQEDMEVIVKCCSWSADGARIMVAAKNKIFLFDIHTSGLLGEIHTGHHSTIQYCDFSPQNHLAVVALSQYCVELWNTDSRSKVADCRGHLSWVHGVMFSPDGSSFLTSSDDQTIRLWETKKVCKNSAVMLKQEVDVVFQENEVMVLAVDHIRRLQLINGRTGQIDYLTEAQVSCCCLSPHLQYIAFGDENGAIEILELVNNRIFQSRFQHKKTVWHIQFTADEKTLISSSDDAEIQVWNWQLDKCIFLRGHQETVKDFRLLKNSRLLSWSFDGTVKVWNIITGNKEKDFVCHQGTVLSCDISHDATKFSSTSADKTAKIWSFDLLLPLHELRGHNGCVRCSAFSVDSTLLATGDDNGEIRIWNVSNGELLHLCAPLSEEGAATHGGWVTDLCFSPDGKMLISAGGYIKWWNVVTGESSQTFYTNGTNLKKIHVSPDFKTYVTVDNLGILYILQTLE
Described as above. Here is the method:
as §1, §2

For another assay, the target named is T5, c-CLAP (human, UniProt O95999 1-233, limits assumed).
T5 sequence (looked up): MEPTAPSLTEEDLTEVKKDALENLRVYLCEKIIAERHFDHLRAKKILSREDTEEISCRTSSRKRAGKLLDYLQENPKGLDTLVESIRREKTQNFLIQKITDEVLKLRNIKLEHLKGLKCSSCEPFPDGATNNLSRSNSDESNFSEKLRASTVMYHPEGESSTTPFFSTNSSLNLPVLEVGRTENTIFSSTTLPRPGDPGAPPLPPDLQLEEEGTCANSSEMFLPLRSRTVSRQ
The assay is described as above. Here is the method:
as §1, §2

In another assay the target is c-IAP2 (UniProt Q13489 1-604, limits assumed). The assay is described as above. Here is the method:
as §1, §2

Assay [2] concerns the target T6, CRADD (human, UniProt P78560 1-199, limits assumed).
T6 construct: also called T7-tagged CRADD
The assay is described as follows: GST pull-down in vitro or co-immunoprecipitation from 293 T cells (T7-CRADD with Flag-Pseudo-ICE, Panel C of FIG. 2). Here is the method: as §2, with “buffer.” for “buffer. The eluted proteins were resolved by SDS-PAGE and detected by Western blot analysis with horseradish peroxidase (HRP)-conjugated anti-T7 Ab (Novagen, Madison, Wis.). Bands were then detected using enhanced chemoluminescence kit (Amersham Pharmacia Biotech).”

Another assay deals with T7, GST (UniProt P08515 1-218 = GST).
T7 construct: also called gluthatione-S-transferase; GST alone
T7 sequence (P08515 whole entry): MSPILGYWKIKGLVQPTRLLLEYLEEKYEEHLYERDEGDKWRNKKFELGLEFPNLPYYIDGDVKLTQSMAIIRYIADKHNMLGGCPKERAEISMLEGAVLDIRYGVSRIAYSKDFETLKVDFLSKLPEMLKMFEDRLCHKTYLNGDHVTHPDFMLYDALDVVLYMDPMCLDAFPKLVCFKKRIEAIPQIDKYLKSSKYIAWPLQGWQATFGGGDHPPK
The assay is described as follows: GST pull-down on glutathione resin of in vitro translated 35S-labeled protein, autoradiography [panel B]. Here is the method: as §1

Assay [3] deals with T6, CRADD. The assay is described as follows: GST pull-down in vitro or co-immunoprecipitation from 293 T cells (T7-CRADD with Flag-ICE-Like, Panel C of FIG. 2). How it is done:
as §2, with “buffer.” for “buffer. The eluted proteins were resolved by SDS-PAGE and detected by Western blot analysis with horseradish peroxidase (HRP)-conjugated anti-T7 Ab (Novagen, Madison, Wis.). Bands were then detected using enhanced chemoluminescence kit (Amersham Pharmacia Biotech).”

The target of a further assay is T8, Flag-tagged RICK (UniProt O43353 1-540).
T8 construct: Expressed in 293 T cells, precipitated with anti-Flag antibodies; also called Flag-RICK; RIP2; not shown: Flag tag
T8 sequence (O43353 whole entry): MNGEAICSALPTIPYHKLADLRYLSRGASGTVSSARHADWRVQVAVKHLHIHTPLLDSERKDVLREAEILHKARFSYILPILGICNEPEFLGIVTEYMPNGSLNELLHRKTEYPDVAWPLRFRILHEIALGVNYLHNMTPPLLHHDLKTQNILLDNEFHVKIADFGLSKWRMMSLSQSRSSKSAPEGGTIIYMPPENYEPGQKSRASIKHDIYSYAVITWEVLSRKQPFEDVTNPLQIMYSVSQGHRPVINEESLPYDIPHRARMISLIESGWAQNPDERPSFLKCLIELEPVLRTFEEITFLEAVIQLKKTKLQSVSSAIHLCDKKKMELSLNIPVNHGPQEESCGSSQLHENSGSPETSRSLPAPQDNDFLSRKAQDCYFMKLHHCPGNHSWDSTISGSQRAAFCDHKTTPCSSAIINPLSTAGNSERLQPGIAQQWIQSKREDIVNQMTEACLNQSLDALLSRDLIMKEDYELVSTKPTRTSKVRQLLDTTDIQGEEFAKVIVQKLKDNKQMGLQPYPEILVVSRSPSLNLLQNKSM
Nature of the assay: co-immunoprecipitation from 293 T cells cotransfected with Flag-RICK, T7-Casp1C/A and rising amounts of T7-ICE-Like: IP anti-Flag, western blot anti-T7 [panel B]. How it is done:
as §2

The target in assay [4] is T1, RICK. The assay is described as follows: GST pull-down of 35S-labelled RICK (data not shown). Here is the method:
as §1

T1 sequence (O43353 whole entry): as above
Sequence of c-IAP2 (Q13489 whole entry): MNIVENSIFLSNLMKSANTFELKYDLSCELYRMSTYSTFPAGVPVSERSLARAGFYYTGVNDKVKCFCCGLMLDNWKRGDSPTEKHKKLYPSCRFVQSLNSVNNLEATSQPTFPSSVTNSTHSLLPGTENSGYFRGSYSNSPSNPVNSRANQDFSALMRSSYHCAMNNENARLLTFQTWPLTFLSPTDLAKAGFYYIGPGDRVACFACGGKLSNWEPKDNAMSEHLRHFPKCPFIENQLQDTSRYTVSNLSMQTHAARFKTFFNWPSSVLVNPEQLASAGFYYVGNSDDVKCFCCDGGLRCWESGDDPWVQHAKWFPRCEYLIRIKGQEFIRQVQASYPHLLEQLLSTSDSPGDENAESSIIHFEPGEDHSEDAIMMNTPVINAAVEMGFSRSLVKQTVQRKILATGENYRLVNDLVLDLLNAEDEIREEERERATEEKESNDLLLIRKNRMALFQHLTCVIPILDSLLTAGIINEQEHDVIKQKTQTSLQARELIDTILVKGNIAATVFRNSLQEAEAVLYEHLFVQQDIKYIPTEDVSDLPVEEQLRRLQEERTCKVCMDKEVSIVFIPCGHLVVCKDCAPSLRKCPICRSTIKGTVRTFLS
T6 sequence (P78560 whole entry): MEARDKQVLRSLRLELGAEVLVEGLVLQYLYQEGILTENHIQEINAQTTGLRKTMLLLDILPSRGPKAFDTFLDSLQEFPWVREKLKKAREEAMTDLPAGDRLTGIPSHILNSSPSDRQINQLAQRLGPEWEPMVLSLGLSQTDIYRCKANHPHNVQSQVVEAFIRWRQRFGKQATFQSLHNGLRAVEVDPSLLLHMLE

B1: Pseudo-ICE (other)
chain: MADKVLKEKRKLFIHSMGEGTINGLLDELLQTRVLNQEEMEKVKRENATVMDKTRALIDSVIPKGAQACQICITYICEEDSYLAETLGLSAGPIPGN
modifications: 35S-methionine label in the in vitro assay
notes: Used for the 35S-labelled in vitro translated product (made from a pcDNA3 construct); also called 35S-labeled Pseudo-ICE; in vitro translated Pseudo-ICE
Regarding B1, the binding result was “binds” in the assay with RICK [1]; “no binding” with pro-caspase-2; “no binding” with pro-caspase-4; “no binding” in the assay with Apaf-1; “no binding” with c-CLAP; “no binding” with c-IAP2. The binding result with CRADD [2] and in the assay with GST was “no binding” in each case.

B2: ICE-Like (other)
chain: MADQLLRKKRRIFIHSVGAGTINALLDCLLEDEVISQEDMNKVRDENDTVMDKARVLIDLVTGKGPKSCCKFIKHLCEEDPQLASKMGLH
modifications: 35S-methionine label in the in vitro assay
notes: Used for the 35S-labelled in vitro translated product (made from a pcDNA3 construct); also called 35S-labeled ICE-Like; in vitro translated ICE-Like
In the case of B2, the binding result with RICK [1], with pro-caspase-2, with pro-caspase-4, with Apaf-1, with c-CLAP and with c-IAP2 was “no binding” in each case. Further, the binding result in the assay with CRADD [3] and in the assay with GST was “no binding” each time.

B3: T7-tagged ICE-Like (other, not shown: small tags and cut ends)
chain: B2 chain
notes: Expressed from pcDNA3 in 293 T cells, or from pMSCVneo retroviral vector in THP-1 cells; also called T7-ICE-Like
B3: the binding result with Flag-tagged RICK is recorded as “no binding”.

B4: GST-conjugated ICE-Like (other)
chain: B2 chain
notes: GST is put first by the usual make of pGEX vectors; also called ICE-Like-GST; GST-ICE-Like; not shown: glutathione-S-transferase (GST) from vector pGEX-5X 3
As to B4, in the assay with RICK [4], the binding result is given as “no binding”.
